Data taken from paper PMC314469, “Protein Interaction Networks by Proteome Peptide Scanning” (PLoS Biology, 2004).

T1: amphyphisin SH3 (AMPH_HUMAN), P49418
T1 chain: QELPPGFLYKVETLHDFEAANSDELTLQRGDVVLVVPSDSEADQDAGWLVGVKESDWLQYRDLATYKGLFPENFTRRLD


Columns and labels:
[1] = target: endophilin SH3 (SH3G2_HUMAN), Q99962; test: SPOT array
[2] = target: T1, amphyphisin SH3 (AMPH_HUMAN), P49418; test: SPOT array

normalised SPOT signal, Boehringer light units (BLU); mean over the file's lines of this peptide [1]	normalised SPOT signal, Boehringer light units (BLU); mean over the file's lines of this peptide [2]	Binder
642	44.8	VSMQLRRPSDRELS [Q04206 268-281]
1560	157	VTSKPRKPPTPPEK [Q96JP2 954-968]
42.4	56.5	VSYPPSKPPTYEEQ [Q15134 299-313]
63.4	61.2	VSGPPRKPPGTVAG [O00255 515-529]
28.7	362	VTLLIYRPERNTKL [Q9H4N5 254-267]
381	36.8	VSHLIRRPISVNPN [Q9NXY9 858-871]
217	95.6	WRRSLRRPDSRGRF [Q9H1V5 704-717]
573	48.9	WRKIPKRPGSVHRT [P11229 442-455]
3620	4460	WGLLPFRPPRPLPV [Q96DX2 170-184]
323	398	SLLSPLRPPGQRGL [Q9UL14 222-236]
628	140	WRYDLRRPSFTRTW [Q96N50 15-28]
59.6	57.9	SLSLPDKPPPQPQQ [P42695 1464-1478]
18400	7550	WSRSPPRPPRERFE [Q9UP58 185-199]
11400	19300	VTIRPLRPPQRARL [O15211 317-331]
5850	54.2	VSVLPKRPRPAEFK [Q96QH2 350-363]
1700	194	WALFFRRPKASLPR [Q9ULK5 218-231]
366	272	WSEVLHRPWRNHPI [O43397 6-19]
294	817	SLTRIPRPGRQRRD [Q12770 808-821]
4250	7190	WPAGPRRPHRSSAS [Q9NP08 303-316]
508	3180	WTDRPERPSKPLLT [O15250 155-168]
7230	4730	WGSLPARPRRPTPT [Q13545 27-40]

normalised SPOT signal, Boehringer light units (BLU); mean over the file's lines of this peptide [1]	normalised SPOT signal, Boehringer light units (BLU); mean over the file's lines of this peptide [2]	Binder
58.7	53	VTDLPKKPPPPEVT [Q96QH2 87-101]
2270	1110	WSLKLSRPSKDYLL [Q9UL63 619-632]
0.4	129	ASEIIERPSKKDGF [Q9BZF1 153-166]
0	465	VVVALSRPVRPQDL [Q9Y6W6 10-23]
332	109	WAGTLQRPVKLLPW [P54317 34-47]
557	73.9	WSQSPQRPPPSTTH [O14782 762-776]
3390	42.8	WGALPPRPPLLLLL [Q9C0B8 71-85]
452	190	WISQISRPRKKGRK [Q92794 305-318]
2680	879	WLGSLRRPSLVHGY [Q96G29 26-39]
1300	2390	WIPVLQRPSRTAAV [O94854 101-114]
60.5	35.8	VVELPRRPAPPAAV [Q96SN6 144-157]
279	64.7	VVPQPQRPDKSPLP [P50548 338-351]
58	51.8	VTDLPKKPPPPEAT [Q96QH2 111-125]
326	26.3	WLTSLKRPLVVIHE [P54198 312-325]
2050	2920	VVSSPPRPVRHGDM [Q9Y6A1 387-400]
782	80.6	VYKPPLKPPKGTRQ [O94991 330-344]
4170	180	VYTPPPRPPPPWGS [AAH30267 1118-1132]
33.4	32.8	VTSRFKRPVNVPRD [Q9P0K9 253-266]
860	15.7	VVPVPERPPEPRAM [O94820 840-854]
10.4	233	VSPEPRRPAPAVSP [Q96JM3 305-318]
1400	39.1	VTQLPARPPPALYT [Q9NRJ4 1023-1037]
